Measurements reported in PMC2275616.
Several values for one entry are separate records, joined by “and”; a condition that tells them apart may be missing. Equal entries are not always repeated.

Target: phosphocellulose-purified tubulin (bovine (endogenous in bovine brain)) (UniProt Q6B856)
Assay: native gel or EMSA

## phosphocellulose-purified tubulin (from UniProt Q6B856 1-445) (complex)
  stoichiometry N: 4 and 6 and 8
